In publication PMC11665552, “Talin1 dysfunction is genetically linked to systemic capillary leak syndrome” (JCI Insight, 2024):

Molecular target: T1, WT talin1 R12-R13-DD (murine, UniProt P26039 2138-2541)
T1 construct: talin1, murine, rod domains R12 and R13 and the dimerization domain (DD), residues 2138-2541; also called WT-R12-R13-DD; R12-R13-DD WT
Test: SEC; 100 uM talin and 100 uM Vd1 (1:1 ratio), Superdex 200 Increase 10/300 GL, room temperature (25°C)
Conditions: both partners purified

T1 sequence (P26039 2138-2541): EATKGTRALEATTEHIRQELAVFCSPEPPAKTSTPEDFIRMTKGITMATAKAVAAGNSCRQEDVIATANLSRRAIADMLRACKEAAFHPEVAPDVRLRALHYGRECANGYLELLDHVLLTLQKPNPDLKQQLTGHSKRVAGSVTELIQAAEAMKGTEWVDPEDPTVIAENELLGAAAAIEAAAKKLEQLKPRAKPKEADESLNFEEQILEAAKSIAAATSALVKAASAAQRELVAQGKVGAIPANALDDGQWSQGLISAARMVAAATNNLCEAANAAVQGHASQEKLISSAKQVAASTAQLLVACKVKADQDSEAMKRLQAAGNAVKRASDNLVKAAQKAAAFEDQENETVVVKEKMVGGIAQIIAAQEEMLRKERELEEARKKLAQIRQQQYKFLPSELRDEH

- binding result: binds
B1: talin-binding domain 1 of vinculin (Vd1) (domain or fragment, chicken, UniProt P12003 1-258, looked up)
chain: MPVFHTRTIESILEPVAQQISHLVIMHEEGEVDGKAIPDLTAPVSAVQAAVSNLVRVGKETVQTTEDQILKRDMPPAFIKVENACTKLVRAAQMLQADPYSVPARDYLIDGSRGILSGTSDLLLTFDEAEVRKIIRVCKGILEYLTVAEVVETMEDLVTYTKNLGPGMTKMAKMIDERQQELTHQEHRVMLVNSMNTVKELLPVLISAMKIFVTTKNTKSQGIEEALKNRNFTVEKMSAEINEIIRVLQLTSWDEDAW
notes: vinculin, chicken, domain 1 (Vd1), residues 1-258; expressed from a pET-15b plasmid; also called vinculin Vd1 domain
